According to patent US20140294830A1 (SAMSUNG LIFE WELFARE FOUNDATION, published 2014):

Biological target: T1, human c-Met/Fc fusion protein (R&D Systems) (human, UniProt P08581 25-932)
T1 construct: Bought reagent; Coated on the ELISA plate at 2 ug/mL; also called human c-Met/Fc protein; not shown: Fc part of the bought fusion protein; not described
Assay: ELISA, human c-Met/Fc coated at 2 ug/mL, hybridoma culture, anti-mouse IgG-HRP
Protocol: Human c-Met/Fc fusion protein was seeded in an amount of 50 μL (2 μg/mL)/well to microtiter plates and allowed to adhere to the surface of each well. The antibody that remained unbound was removed by washing.
The hybridoma cell culture obtained in Reference Example 1.1.2 was added in an amount of 50 μL to each well of the plates and incubated for 1 hour. The cells remaining unreacted were washed out with a sufficient amount of Tris-buffered saline and Tween 20 (TBST). Goat anti-mouse IgG-horseradish peroxidase (HRP) was added to the plates and incubated for 1 hour at room temperature. The plates were washed with a sufficient amount of TBST, followed by reacting the peroxidase with a substrate (OPD). Absorbance at 450 nm was measured on an ELISA reader.

T1 sequence (P08581 25-932 limits assumed): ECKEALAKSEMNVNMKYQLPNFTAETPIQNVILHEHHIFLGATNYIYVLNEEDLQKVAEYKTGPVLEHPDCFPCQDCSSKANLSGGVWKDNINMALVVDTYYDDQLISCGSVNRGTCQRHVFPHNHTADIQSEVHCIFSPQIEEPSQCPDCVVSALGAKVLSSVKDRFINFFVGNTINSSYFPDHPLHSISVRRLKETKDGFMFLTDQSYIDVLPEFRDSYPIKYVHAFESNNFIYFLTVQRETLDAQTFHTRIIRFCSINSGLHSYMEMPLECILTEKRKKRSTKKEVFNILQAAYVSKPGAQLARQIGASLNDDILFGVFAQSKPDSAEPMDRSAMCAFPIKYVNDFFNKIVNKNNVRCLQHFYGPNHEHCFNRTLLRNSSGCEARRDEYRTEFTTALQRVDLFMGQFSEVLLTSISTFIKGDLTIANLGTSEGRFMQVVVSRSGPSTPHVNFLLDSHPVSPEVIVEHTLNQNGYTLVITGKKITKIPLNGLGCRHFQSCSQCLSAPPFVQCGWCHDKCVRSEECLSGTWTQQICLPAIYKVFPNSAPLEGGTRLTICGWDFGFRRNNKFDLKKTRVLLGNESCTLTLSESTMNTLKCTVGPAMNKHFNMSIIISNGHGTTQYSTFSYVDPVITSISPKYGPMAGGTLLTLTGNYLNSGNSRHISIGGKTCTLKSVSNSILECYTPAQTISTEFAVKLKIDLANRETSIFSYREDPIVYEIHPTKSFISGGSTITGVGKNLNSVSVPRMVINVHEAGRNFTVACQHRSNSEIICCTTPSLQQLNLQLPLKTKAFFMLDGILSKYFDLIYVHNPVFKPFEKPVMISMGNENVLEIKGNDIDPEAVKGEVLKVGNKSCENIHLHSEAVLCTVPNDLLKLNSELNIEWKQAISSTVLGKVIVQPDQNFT

- binding result: binds
B1: AbF46, mouse monoclonal antibody to c-Met (antibody, V domains shown)
VH: EVKLVESGGGLVQPGGSLRLSCATSGFTFTDYYMSWVRQPPGKALEWLGFIRNKANGYTTEYSASVKGRFTISRDNSQSILYLQMDTLRAEDSATYYCARDNWFAYWGQGTLVTVSA
VL: DILMTQSPSSLTVSAGEKVTMSCKSSQSLLASGNQNNYLAWHQQKPGRSPKMLIIWASTRVSGVPDRFIGSGSGTDFTLTINSVQAEDLAVYYCQQSYSAPLTFGAGTKLELK
notes: Tested as hybridoma culture supernatant in the selection ELISA; also called monoclonal antibody produced by hybridoma KCLRF-BP-00220
